In the DeepSol protein solubility set:

test: soluble on expression in E. coli; label from the status in PepcDB or PDB records

Soluble on expression in E. coli, soluble:
MPEPTADAPTVPKARSCPFLPPDGIADIRAAAPVTRATFTSGHEAWLVTGYEEVRALLRDSSFSVQVPHALHTQDGVVTQKPGRGSLLWQDEPEHTSDRKLLAKEFTVRRMQALRPNIQRIVDEHLDAIEARGGPVDLVKTFANAVPSMVISDLFGVPVERRAEFQDIAEAMMRVDQDAAATEAAGMRLGGLLYQLVQERRANPGDDLISALITTEDPDGVVDDMFLMNAAGTLLIAAHDTTACMIGLGTALLLDSPDQLALLREDPSLVGNAVEELLRYLTIGQFGGERVATRDVELGGVRIAKGEQVVAHVLAADFDPAFVEEPERFDITRRPAPHLAFGFGAHQCIGQQLARIELQIVFETLFRRLPGLRLAKPVEELRFRHDIVFYGVHELPVTWHHHH
MESPSALPSLDQLLKEQGADQTLTDLILAILDRCGKIASALQGTSVDKVGSVNEFGDEQLTVDVIAENLLRSWAQSSEGSAVRAVCSEEDIHLQECHKNGEFILCWDPLDGSSIIDCNWAVGSIVSIWRIGHHGVQWQGADTLIQKTGRQQVASLIVVYGPRTTGVVAVNVDAGGIVKEGTALDLEMKDNGKFICRGKPIIKPQAKIFSPANLRAAQDLPAYKQLIEFWMEKRYTLRYTGGLVPDVYQIFVKQQGVFCNPASKAAPAKLRMCFEVLAIALVVEAAGGRTSNGQKSLLDVAIEHMDHRSALCCGSADEIKRMEETFAALSG
MSLDYNNITEALQAFRTEKAYRHAPLRSCFFDMDGVLFDSMPAHARSWVEAAGECGIAAEPLDFYRWEGQKGSDTIKILFERGYGRLPTEKEIADMYGRKSQLFALYNSGNVIDDAPALVSDVCDRGLRIMLVTGSSQTDILQRLQRSYGDNFSPANMVTGADVHRGKPHPEPYLKALECVGMSPSEAFVVENAPLGVRAAVDAGIFTIAVNTGCLPDADLWDAGASLVLPSMAVLRSLLGELLTESLSSSAEGHHHHHH
MSLTIQMKNTGKRIDLIANRKPQSQRVLYELRDRLKRNQFILNDTNPDIVISIGGDGMLLSAFHKYENQLDKVRFIGLHTGHLGFYTDYRDFELDKLVTNLQLDTGARVSYPVLNVKVFLENGEVKIFRALNEASIRRSDRTMVADIVINGVPFERFRGDGLTVSTPTGSTAYNKSLGGAVLHPTIEALQLTEIASLNNRVYRTLGSSIIVPKKDKIELIPTRNDYHTISVDNSVYSFRNIERIEYQIDHHKIHFVATPSHTSFWNRVKDAFIGEVDEEGHHHHHH
MAHHHHHHMTSPALAPPQNTAEFWIKRLQLVPHPEGGYYSEVVRSAHKVDNEEGNRRHAYTTIYFLCTPESPSHLHRLCSDETWMYHAGDPLQLHVILKDPQDEDRIAAQPPAAPQAETDTADARPKYQVYRRVLVGARVERGELLQYTVPGGAIFGSSVAADGADGQAGYSLVSCIVSPGFDYRDFEIFTQAQLMELYPQHEAVIKQMAYETLPNHARLQTTEI
GTTVHCDYLNRPHKSIHRRRTDPMVTLSSILESIINDMRDLPNTYPFHTPVNAKVVKDYYKIITRPMDLQTLRENVRKRLYPSREEFREHLELIVKNSATYNGPKHSLTQISQSMLDLCDEKLKEKEDKLARLEKAINPLLDDDDQVAFSFILDNIVTQKMMAVPDSWPFHHPVNKKFVPDYYKVIVNPMDLETIRKNISKHKYQSRESFLDDVNLILANSVKYNGPESQYTKTAQEIVNVCYQTLTEYDEHLTQLEKDICTAKEAALEEAELESLDPMT
MSLEKTTRMNYLFDFYQSLLTSKQKSYMSLYYLDDFSLGEIAEEYEVSRQAVYDNIKRTEAMLEQYEEKLLLLKKFQERKEMFNKLKELASGSKEEEEITALIEALEKLD

Soluble on expression in E. coli, not soluble:
MNVSVLNFGNTPVSFRQDGFLNATAIASHFGKLPKDYLKSEQTQQYISALAENLSVRRKILTEANQIVIVKRGGSEQGTWLHPKLAIHFARWLNPKFAVWCDEQIEILLNGKISDGIKTVTPKPTRALPDGLTGEQIEAVKKLHNALTKSAPKEAQARIAITLWSAVKSKFGCSYKEVPAEQFPEVLSVMGRVAVENGVLYGEVLDREPLPAPQPALPISGNALYDLAVAVRYGAWAIQMGRDVSLPLKQLGCKQAVTMWTVWAETRSRLKAAANALEALNAHADAEHAAKIRPMLPEIRNLSSV
MGSDKIHHHHHHMSWHNKVVWNEGLFLLPQLFQQQERYFEYFAHKRAAVLSPFFWGFSRYEIDQESLSFGKLVFKSGAGIFPDGTPFDVPGHTPPPPPLTIAAEHQDQVIYLAVPLRLPNTEETAFDEQAGSLARYSAFEIELRDSNAIGQGPKPVQLANMRLRLLPEKELTQSWIGIALTRVKTLHADGSVALYDGDHIPPVSQYGANPLLREWATQLHGLAKLRADALATRLSGSDGRAGAAAEVADYLLLQVLNRYEPLLEHICRIREMPPVTLYRELSMLAGELSTFVRPQTRRPRPTPGYDHAQLYASIRPLVDEVHYLLNQVLIRGAQPIPLTEQPHGIRVATMLPSELAGYSSLVLAVGAQMSPDVLQQQFASQTKISHPQRLPELIRSHLPGMTMIPLPVPPRQIPFNSSYIYYELSRTGPFWEQIAQQGGLAMHIAGHFPELKLELWGVRHK
MSGNSSTDMYLFKKSLKELKGKKGKGTELISVYVPAGRRLSDISQYLRQELSQSSNIKSKTTMKNVQSAIEVILQRLKLLKEPLEMGVIIFAGMIPRGGPGTEKMEVYVLEPPEPVKTFVYRCDSLFYTDPLEDFIQDTEVYGVILVDRNEATIGTVKGKTITVLKKLTSGVPGKFKAGGQSARRLERLIDDAAHQFMVRIGEYATESFMPILEEKKLKGLLLGGPGNTKNEFAEKDYLHHELKKKIIDTFDLCYTEEFGIRELLDKASDLLRDLDLMKEKNLIQKFFKELIKDDGGLSAYGEAQVMKYLEMGAIDTLIVTEDIGITRVTVKCNNCDYAQEVNVKTNEMFKFEEQLKTKACPTCGGAMYIDEEKDIIEHLSDLCHMHNTDIIVVSTDTEEGSQISRAFKGMAAILRYKL
MGSDKIHHHHHHMKDRSFDTLQEAVDVLSLTLNGPVTLEDREHRLLAYSKHSHETDSARIETIMNRQVPDRVIEGLWSSGLLQKLNQTDEPIRIPGIPAVGLGNRVAISIRQQQFVLGYIWVLELEEPLTDEQLNDLKDMVSLIRAMLIKQQETRFRRRLEREERWRHLYQGTETVAEVKRRFQAEGEPLPERGVVVQFFCERTIKEEHEQALSFISEKVKSRILVTFAMLIDGKWTVYLTDSLKKPLDEQVVKHFIDQWIRSWNDQFSYANVLAGVGQHCSQLTDVSESFHQAEKVIELKGEFAYELDKVYYFHELGFYRIIVDSVPILESETVQTLAAYDQKQGTELLQTLEAFLDVDGRNQAAAALLHVHPNTLNYRMKRIYELTGLDVKNMKDKVSLYLELKLRRWRNRVE
MGSDKIHHHHHHMEKTAIRIPIFMYSLLTPAWEHKIEAQTDGDPFGDSQPMKEYYGPNGKWLLDGVLRHLNISREDEIAILTTSDERYVSTCVSITCFNYAKISRVVGPNTKVVIVIHEFGYVYPDIKNYVCNLKERGIVVIEDCAHIIGCDINGKKIGSFGDYALFSLPKISPARAGGLLRTTKNIKLPVLNSNLSQLTNIGIAGAEKYLPKYKFFNKGRIERAELLKSQVNDLCNIFEPSHPAVPYFLGIVTSEKSKIETSLPWIEFGATLRNDLVYIPTNPLASINLFELITNTIKNGGKICN
MGSDKIHHHHHHMFVSPMLLHSIKEPFNDENYITELKFDGIRLILSKFDNQIKLYTRHNNEVTSKFPELMDLDIPDGTVLDGEVIVAASGGAPDFEAVMERFMSKKSAHNIVYCVFDVIYKDGQSIAAKPLTERKTVLNSLELDHPNVFVIEGTQGNGLAYFNLAKEKNLEGIVIKKANSPYEINKRSHNWLKVINYDYTEVLITGYTKKDIKFLLSYPDGTSAGFMEFMPHAERTKFHSMKQVKSESDEYVFIEPILCNVKHRFKTKHGKLRIPSFESWRV
MNDHKALKIFLMAAEKRNFAQVARELSMTAAGVTRAIAALECDLGVQLFVRTTRQVSLTTDGAVFAAQIQPAVEALENARRDVRNAHKADEGRLRISAPTWLGKTVLPPILSGFRELYPKMCFEISLSDGLVNIVDDDYDLAIRISSAPSDKFTIWRKIRAVPRILVAAPGSRFTQMKHPSDLTPDDCLAYSGESRRENWILSDGGSSITITAGRAFSANNGEVLADMAADGAGVAMLPGFHIAEHIRSGRLVHVLPGWAPPELWLTLYYPPYQTLPPRIATFSKFFEEQLTAHMVALD
